± gives the uncertainty stated by the source.
assay: abundance fitness (aPCA) (normalised: wild type 0, dead -1); higher = more abundant; growth selection in yeast, the domain comes from the species named; conditions: Saccharomyces cerevisiae (strain ATCC 204508 / S288c)

Substance | abundance fitness
E3 ubiquitin-protein ligase RSP5 T342G, P39940 | -0.255 ± 0.045
E3 ubiquitin-protein ligase RSP5 T342H, P39940 | -0.455 ± 0.3
E3 ubiquitin-protein ligase RSP5 T342K, P39940 | -0.824 ± 0.058
E3 ubiquitin-protein ligase RSP5 T342L, P39940 | -0.074 ± 0.065
E3 ubiquitin-protein ligase RSP5 T342M, P39940 | -0.327 ± 0.17
E3 ubiquitin-protein ligase RSP5 T342N, P39940 | -0.225 ± 0.13
E3 ubiquitin-protein ligase RSP5 T342P, P39940 | -0.556 ± 0.074
E3 ubiquitin-protein ligase RSP5 T342Q, P39940 | -0.226 ± 0.067
E3 ubiquitin-protein ligase RSP5 T342R, P39940 | -0.738 ± 0.044
E3 ubiquitin-protein ligase RSP5 T342V, P39940 | -0.315 ± 0.047
E3 ubiquitin-protein ligase RSP5 T342W, P39940 | -0.865 ± 0.054
E3 ubiquitin-protein ligase RSP5 T354A, P39940 | -0.152 ± 0.052
E3 ubiquitin-protein ligase RSP5 T354C, P39940 | -0.196 ± 0.088
E3 ubiquitin-protein ligase RSP5 T354E, P39940 | -0.163 ± 0.054
E3 ubiquitin-protein ligase RSP5 T354F, P39940 | -0.374 ± 0.093
E3 ubiquitin-protein ligase RSP5 T354G, P39940 | -0.223 ± 0.043
E3 ubiquitin-protein ligase RSP5 T354H, P39940 | 0.187 ± 0.14
E3 ubiquitin-protein ligase RSP5 T354K, P39940 | -0.147 ± 0.082
E3 ubiquitin-protein ligase RSP5 T354L, P39940 | -0.266 ± 0.049
E3 ubiquitin-protein ligase RSP5 T354P, P39940 | -1.07 ± 0.078
E3 ubiquitin-protein ligase RSP5 T354Q, P39940 | -0.165 ± 0.056
E3 ubiquitin-protein ligase RSP5 T354R, P39940 | -0.219 ± 0.044
E3 ubiquitin-protein ligase RSP5 T354S, P39940 | -0.049 ± 0.049
E3 ubiquitin-protein ligase RSP5 T354V, P39940 | -0.445 ± 0.043
E3 ubiquitin-protein ligase RSP5 T354W, P39940 | -0.658 ± 0.065

Substance | abundance fitness
E3 ubiquitin-protein ligase RSP5 T356A, P39940 | -0.237 ± 0.048
E3 ubiquitin-protein ligase RSP5 T356C, P39940 | 0.032 ± 0.064
E3 ubiquitin-protein ligase RSP5 T356D, P39940 | -0.405 ± 0.08
E3 ubiquitin-protein ligase RSP5 T356E, P39940 | -0.3 ± 0.054
E3 ubiquitin-protein ligase RSP5 T356G, P39940 | -0.465 ± 0.044
E3 ubiquitin-protein ligase RSP5 T356H, P39940 | -0.483 ± 0.23
E3 ubiquitin-protein ligase RSP5 T356I, P39940 | 0.404 ± 0.26
E3 ubiquitin-protein ligase RSP5 T356K, P39940 | -0.225 ± 0.066
E3 ubiquitin-protein ligase RSP5 T356L, P39940 | -0.143 ± 0.047
E3 ubiquitin-protein ligase RSP5 T356M, P39940 | -0.005 ± 0.066
E3 ubiquitin-protein ligase RSP5 T356N, P39940 | -0.285 ± 0.18
E3 ubiquitin-protein ligase RSP5 T356P, P39940 | -0.96 ± 0.069
E3 ubiquitin-protein ligase RSP5 T356Q, P39940 | -0.121 ± 0.05
E3 ubiquitin-protein ligase RSP5 T356R, P39940 | -0.32 ± 0.042
E3 ubiquitin-protein ligase RSP5 T356S, P39940 | 0.034 ± 0.05
E3 ubiquitin-protein ligase RSP5 T356V, P39940 | -0.124 ± 0.052
E3 ubiquitin-protein ligase RSP5 T356Y, P39940 | -0.381 ± 0.12
E3 ubiquitin-protein ligase RSP5 T357A, P39940 | -0.304 ± 0.048
E3 ubiquitin-protein ligase RSP5 T357C, P39940 | -0.142 ± 0.065
E3 ubiquitin-protein ligase RSP5 T357D, P39940 | -0.711 ± 0.06
E3 ubiquitin-protein ligase RSP5 T357E, P39940 | -0.477 ± 0.058
E3 ubiquitin-protein ligase RSP5 T357F, P39940 | -1.11 ± 0.28
E3 ubiquitin-protein ligase RSP5 T357G, P39940 | -0.81 ± 0.047
E3 ubiquitin-protein ligase RSP5 T357H, P39940 | -0.578 ± 0.16
E3 ubiquitin-protein ligase RSP5 T357I, P39940 | -0.735 ± 0.17

Substance | abundance fitness
E3 ubiquitin-protein ligase RSP5 T357K, P39940 | -0.393 ± 0.069
E3 ubiquitin-protein ligase RSP5 T357L, P39940 | -0.488 ± 0.08
E3 ubiquitin-protein ligase RSP5 T357M, P39940 | -0.33 ± 0.094
E3 ubiquitin-protein ligase RSP5 T357P, P39940 | -0.77 ± 0.073
E3 ubiquitin-protein ligase RSP5 T357Q, P39940 | -0.441 ± 0.07
E3 ubiquitin-protein ligase RSP5 T357S, P39940 | -0.1 ± 0.062
E3 ubiquitin-protein ligase RSP5 T357V, P39940 | -0.247 ± 0.059
E3 ubiquitin-protein ligase RSP5 T357W, P39940 | -0.695 ± 0.061
E3 ubiquitin-protein ligase RSP5 T357Y, P39940 | -0.955 ± 0.31
E3 ubiquitin-protein ligase RSP5 T358D, P39940 | -0.659 ± 0.091
E3 ubiquitin-protein ligase RSP5 T358E, P39940 | -0.761 ± 0.051
E3 ubiquitin-protein ligase RSP5 T358G, P39940 | -0.535 ± 0.044
E3 ubiquitin-protein ligase RSP5 T358H, P39940 | -0.411 ± 0.076
E3 ubiquitin-protein ligase RSP5 T358I, P39940 | -1.07 ± 0.38
E3 ubiquitin-protein ligase RSP5 T358K, P39940 | -0.658 ± 0.12
E3 ubiquitin-protein ligase RSP5 T358L, P39940 | -0.886 ± 0.063
E3 ubiquitin-protein ligase RSP5 T358N, P39940 | -0.767 ± 0.12
E3 ubiquitin-protein ligase RSP5 T358P, P39940 | -0.955 ± 0.067
E3 ubiquitin-protein ligase RSP5 T358Q, P39940 | -0.326 ± 0.057
E3 ubiquitin-protein ligase RSP5 T358R, P39940 | -0.781 ± 0.046
E3 ubiquitin-protein ligase RSP5 T358S, P39940 | -0.028 ± 0.058
E3 ubiquitin-protein ligase RSP5 T358V, P39940 | -0.729 ± 0.071
E3 ubiquitin-protein ligase RSP5 T358W, P39940 | -0.626 ± 0.064
E3 ubiquitin-protein ligase RSP5 T358Y, P39940 | -0.633 ± 0.12

Source: the Human Domainome abundance scans (Beltran et al. 2025)
